Test results as given in the supplement of paper PMC9170038.

System: MS2 coat protein
Test: apparent KD of MS2 coat protein; designed switch direction (-1 OFF switch, 1 ON switch): -1; higher = weaker reporter binding
Procedure, shortened: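 Designed RNA switches sharing common flanks were transcribed on Illumina chips by stalled E. coli RNA polymerase. They were titrated with SNAP-549-labelled MS2 coat protein, from 0.7 or 1.5 nM doubling to 3 µM, in Tris-HCl pH 7.5 buffer with KCl, MgCl2, BSA, DTT, tRNA and Tween-20. Titrations ran without input, with 200 uM small-molecule ligand, or with an oligonucleotide input. The apparent KD of each design is the median over its clusters, after curve-fitting of normalised cluster fluorescence.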

[1] = input ligand: microRNA oligo, concentration not stated
[2] = Eterna round: R95, input ligand: FMN 200 uM
[3] = Eterna round: R95, input ligand: microRNA oligo, concentration not stated
[4] = Eterna round: R95, input ligand: none

Sequence	apparent KD of MS2 coat protein (input ligand: FMN 200 uM) [nM]	apparent KD of MS2 coat protein (input ligand: none) [nM]	apparent KD of MS2 coat protein [1] [nM]	apparent KD of MS2 coat protein [2] [nM]	apparent KD of MS2 coat protein [3] [nM]	apparent KD of MS2 coat protein [4] [nM]
GGGAGCAGACGGAGAUCCAACAUGAGGAUCACCCAUGUCUCCCAAGCUUUUUGCUUGUCUUAUCCUCCUCUGUUUCC [Design #9] (Eterna round: R97, puzzle: Sensor, turn-off variant 1)	17.2	17.6	–	–	–	–
GGGAGGGAUACAGGAUAUAUGACAUGAGGAUACAUGAGACAUACAAACAUGAGGAUCACCCAUGUAUAGAAGGGUAAGGGAGGG [Another guess] (Eterna round: R96, puzzle: Exclusion NG 2)	–	–	126	–	–	–
GGGAUGUCAGGAUAUCCGAAAGUCUGCCAAUACGGCAGACAGGAGAAGGGACAUGAGGAUCACCCAUGUAAAGA [Aedxear] (puzzle: Exclusion 4)	–	–	–	120	59.4	49.4
GGGAUGUGAGGAUAUCGAGGUGGAAAGCACCUAACAGAAAACGAGAAGGCACAUGAGGAUCACCCAUGUAAUAC [Ditete] (puzzle: Exclusion 4)	–	–	–	54.6	19.5	19.8
GGGCAAUUAGGAUAUACAUGAGGAUCACCCAUGUGGAAGCCCGGACAGGUAAUCCACUGUAGAAGGGAUUGCGG [Userqube] (puzzle: Exclusion 3)	–	–	–	–	13.5	–
GGGCCCGGAGGAUAUACAAUCCCGGGCCGAAAGGUUUGGGUACAUGAGGAUCACCCAUGUAGAAGGCCGGGCCC [-40.9, -38.2 kcal A 24%, 5b bis,0] (Eterna round: R97, puzzle: Exclusion 2)	29.1	17.9	–	–	–	–
GGGCCCGGAGGAUAUACAAUGGGUUUGGGAAACCGGGCCCUACAUGAGGAUCACCCAUGUAGAAGGCCGGGCCC [-41, -38.9 kcal A 24%, 5b,0] (Eterna round: R97, puzzle: Exclusion 2)	39.9	34.2	–	–	–	–
GGGCCCGGUGUGAGGAUAUGCCCGGGUAAACCCGGGUAGAAGGCACAUGAGGAUCACCCAUGUAAGCCGGGCCC [-43, -40.9 kcal, A 23%, 5cbis-0] (Eterna round: R97, puzzle: Brourd's mod of Exclusion 4)	12.8	17.7	–	–	–	–
GGGCCUGGUGUAGGAUAUCGUGGGCGGUGUCGGCGAGAAGGACAUGAGGAUCACCCAUGUCCGGGCUCGGGUUCCCGGGCUUGG [second try -37.9 kcal and 14% A] (Eterna round: R96, puzzle: Exclusion NG 1)	28.5	15.4	13	–	–	–
GGGCGGCGGACCGUGGCUUUUUGCUCGUCUUGUGCUUCGACAUGAGGAUCACCCAUGUGGUGGUGGUCCGUUGUGGG [Grok-var2-14 mod JAL] (puzzle: Sensor v3, turn-off variant 2)	–	–	–	18.2	12.6	14.7
GGGCGUGAAGGAUAUACAUGAGGAUCACCCAUGUGGGAGGAGAAUGGUGAGGAGGCUGGUAGAAGGUCAGGAGG [JR_Exclusion3_Sub009] (puzzle: Exclusion 3)	–	–	–	–	37.5	–
GGGUACAAGCUAAGAUCCUACAUGAGGAUCACCCAUGUGGUCCGGUGACGUGAGUCACCGGACUUAGCUCGUCUUGU [salish99_S_TOV1_R5_003] (Eterna round: R97, puzzle: Sensor, turn-off variant 1)	59.3	61.3	–	–	–	–
GGGUGACAUGAGGAUCACCCAUGUCAGGAUAUGAUUCUGCUUGCGAAAGCGAGUAGAAUCAGAAGGGACAUCCC (Eterna round: R97, puzzle: Exclusion 1)	293	65.2	–	–	–	–
GGGUGCAGGCUGAGGUCCUACAUGAGGAUCACCCAUGUGGUCCGGUGACGUGGGUCGCCGGACUUGGCUCGUCUUGU [salish99_S_TOV1_R5_012] (Eterna round: R97, puzzle: Sensor, turn-off variant 1)	39	48.6	–	–	–	–
GGGUGUGCUAAGGAUAUCGGACCAUCGGGUAACUGAGAAGGUAGCACAUGAGGAUCACCCAUGUGUAACUUGAU [EX6 B.12] (Eterna round: R97, puzzle: Exclusion 6)	159	16	–	–	–	–
GGUACUAACACGAAAGUGUUAGUACUAUAAGCUUGUGUUACAUGAGGAUCACCCAUGUCCUCAUAAGCUCGUCUUGU [JL-sv3-2.19 mat747 mod] (puzzle: Sensor v3, turn-off variant 2)	–	–	–	45.4	44.2	44.9
GGUACUAACACGAUAGUGUUAGUACUAUAAGCUUGUGUUACAUGAGGAUCACCCAUGUCCUCAUAAGCUCGUCUUAU [Mat - Sensor v3 - Turn-off var 2 - D77] (puzzle: Sensor v3, turn-off variant 2)	–	–	–	95.9	50.2	98.6
GGUACUAACACGAUAGUGUUAGUACUAUAAGCUUGUGUUACAUGAGGAUCACCCAUGUCCUCAUAGGCUCGUCUUAG [Mat - Sensor v3 - Turn-off var 2 - D85] (puzzle: Sensor v3, turn-off variant 2)	–	–	–	87.1	23.1	106
GGUACUCAAAGAGUACCAAUACGAACAUGAGGAUCACCCAUGUAGGAUAUGCUACUCAAAGAGUAGCAGAAGGACAUGUGCCUU [Far Half Aptamer v5] (Eterna round: R96, puzzle: Exclusion NG 3)	254	29.5	25.3	–	–	–
GGUACUCAAAGAGUACCAAUACGAACAUGAGGAUCACCCAUGUAGGAUAUGCUACUCAAAGAGUAGCAGAAGGAUAUGAUGAAU [Far Half Aptamer v16] (Eterna round: R96, puzzle: Exclusion NG 3)	41.1	40.2	30.8	–	–	–
GGUAGAGUGGUAGGAUAUCCGUCUGUUUCAGUCGGAGAAGGACCACAGUCACUGGGUCCUAAUAUGGGUGACCAUGUAUCUACC [pwkr exNG1 F6.11] (Eterna round: R96, puzzle: Exclusion NG 1)	1340	348	279	–	–	–
GGUAGUAUGAGUAGUCCUCAUUGAAGAGAUUGGUAAGAUACAUGAGGAUCACCCAUGUUUGAACAAGCUUUUGCUCA [JR_Sv3TOV2_Sub006] (puzzle: Sensor v3, turn-off variant 2)	–	–	–	141	53	298
GGUAGUAUGAGUAGUCCUCAUUGAAGAGAUUGGUAAGAUACAUGAGGAUCACCCAUGUUUGAACAAGCUUUUGCUCU [JR_Sv3TOV2_Sub007] (puzzle: Sensor v3, turn-off variant 2)	–	–	–	87.1	25.9	82.8
GGUAUAUGAGGAUAUAGAUUCCUCGACAUGAGGAUCACCCAUGUAAGAUUGGGCCUAGAACUAGAAGGCGUGGCUU [Eternabot (L1) Solution 77] (Eterna round: R97, puzzle: Exclusion 5)	72.1	128	–	–	–	–
GGUCAAGAACAGAUCCGCGCUGCCAUUGACCGCUCAUUUACAUGAGGAUCACCCAUGUUUUUUGCUCGUCUUACUAC [Edesso] (puzzle: Sensor v3, turn-off variant 2)	–	–	–	20.8	61.4	19.3
GGUCAAGAACAGAUCCGCGCUGCCCUCGACCGCUCAUUUACAUGAGGAUCACCCAUGUUUUUUGCUUGUCUUGUUAC [Vezageis] (puzzle: Sensor v3, turn-off variant 2)	–	–	–	17.2	57	17.1
GGUCAAGAACAGCGCCGCGCUGCCCUUGACCGCUCAUUUACAUGAGGAUCACCCAUGUUUUUUGCUUGUCUUGUUUC [Tiordiri] (puzzle: Sensor v3, turn-off variant 2)	–	–	–	20.6	101	23.7
GGUCAAGGACAGCUCCGCGCUGCCCUUGACCGCUCAUUUACAUGAGGAUCACCCAUGUUUUUUGCUUGUCUUGUUUC [Atedorgela] (puzzle: Sensor v3, turn-off variant 2)	–	–	–	20	110	24.2
GGUCAGACGGUAGGAUAUUCAUAUCGAGUGACCCUUUCAUAACAUGAGGAUCACCCAUGUCGGUGGGAGAAGGGCCGUACGGCG [salish99_ExNG02_R04_008] (Eterna round: R96, puzzle: Exclusion NG 2)	41	33.6	31.9	–	–	–
